According to PMC2704292:

Target: actin of the thin filaments of rabbit psoas myofibrils (rabbit (endogenous in psoas myofibrils)) (UniProt P68135)
Assay: co-sedimentation

average level of replacement of Tm in reconstituted myofibrils: 96%
Substance: rabbit fast skeletal tropomyosin (from UniProt P58772 1-284; P58776 1-284) (natural protein)
